We go through two molecules from patent US20050026839A1 (GENERAL HOSPITAL, published 2005).

Square brackets hold non-standard residues; d marks the D form. Ends that are not written are not given here. hArg = N=C(N)NCCCC[C@H](N)C(=O)O; Nle = CCCC[C@H](N)C(=O)O

The target in assay [1] is T1, truncated human P1R deleted for residues (24-181) (hP1R-delNt) (human, UniProt Q03431 182-593).
T1 construct: whole, on cells; also called delNT receptor
T1 sequence (looked up): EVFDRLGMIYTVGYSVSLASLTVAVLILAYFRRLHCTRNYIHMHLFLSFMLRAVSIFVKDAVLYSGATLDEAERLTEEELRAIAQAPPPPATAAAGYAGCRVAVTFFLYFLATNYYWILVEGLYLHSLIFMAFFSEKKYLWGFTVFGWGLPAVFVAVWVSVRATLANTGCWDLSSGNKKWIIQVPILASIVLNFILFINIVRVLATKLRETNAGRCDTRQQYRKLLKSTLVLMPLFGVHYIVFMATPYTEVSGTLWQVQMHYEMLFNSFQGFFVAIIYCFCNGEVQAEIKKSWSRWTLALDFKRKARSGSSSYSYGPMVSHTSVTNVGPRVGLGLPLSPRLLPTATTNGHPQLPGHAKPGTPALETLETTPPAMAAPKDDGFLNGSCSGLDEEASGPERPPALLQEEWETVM
The assay is described as follows: radioligand binding, COS-7 cells with P1R-delNt.

Assay [2] has as its target T2, wild-type human PTH/PTHrP receptor (hP1R-WT) (human, UniProt Q03431 27-593).
T2 construct: whole, on cells; HKRK-B28 cells express ~280,000 receptors per cell; also called PTH-1 receptor; PTH-1R
T2 sequence (looked up): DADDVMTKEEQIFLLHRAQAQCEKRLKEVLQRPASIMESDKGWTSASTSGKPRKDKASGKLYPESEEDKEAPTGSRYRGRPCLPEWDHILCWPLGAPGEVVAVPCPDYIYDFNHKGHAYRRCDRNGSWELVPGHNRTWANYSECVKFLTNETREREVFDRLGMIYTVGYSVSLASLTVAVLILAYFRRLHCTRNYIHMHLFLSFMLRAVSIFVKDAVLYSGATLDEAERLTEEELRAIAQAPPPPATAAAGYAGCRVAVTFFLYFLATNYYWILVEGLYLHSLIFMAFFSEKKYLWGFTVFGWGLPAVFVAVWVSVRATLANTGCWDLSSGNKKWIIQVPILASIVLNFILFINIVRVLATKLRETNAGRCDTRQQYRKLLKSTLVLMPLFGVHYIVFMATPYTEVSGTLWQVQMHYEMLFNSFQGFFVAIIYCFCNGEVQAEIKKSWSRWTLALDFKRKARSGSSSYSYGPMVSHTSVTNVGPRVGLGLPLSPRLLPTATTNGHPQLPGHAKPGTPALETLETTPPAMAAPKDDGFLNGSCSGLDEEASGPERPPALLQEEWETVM
The experiment in a line: radioligand binding to HKRK-B28 cells.

As to AVAEIQL[Nle]HQ[hArg]AKWLASVRRY-NH2 (also: 125I radioiodinated, residue not given here, Tracer radioligand) [^125I-[M]PTH(1-21)], the binding result in assay [1] is “no binding”. Consider AVAEIQL[Nle]HQ[hArg]AKWY-NH2 (also: 125I radiolabel, iodinated residue not given here) [^125I-[Ala^3,12Nle^8Gln^10,Har^11,Trp^14,Tyr^15]PTH(1-15)amide], for which, in assay [2], the binding result is listed as “no binding”.
